Data reported in the supplement of paper PMC10266784.

B1: library; numbered along this chain (parent)
chain: MAAAAAAAAEQQSSNGPVKKSMREKAVERRSVNKEHNSNFKAGYIPIDEDRLHKTGLRGRKGNLAICVIILLFILAVINLIITLVIWAVIRIGPNGCDSMEFHESGLLRFKQVSDMGVIHPLYKSTVGGRRNENLVITGNNQPIVFQQGTTKLSVENNKTSITSDIGMQFFDPRTQNILFSTDYETHEFHLPSGVKSLNVQKASTERITSNATSDLNIKVDGRAIVRGNEGVFIMGKTIEFHMGGNMELKAENSIILNGSVMVSTTRLPSSSSGDQLGSGDWVRYKLCMCADGTLFKVQVTSQNMGCQISDNPCGNTH

Variants of: B1
Assay: SGCB cell-surface expression functional score (HA stain, bin4 vs bin1, normalised to synonymous) (log10 ratio); higher = more cell-surface SGCB (functional)
Method in brief: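 Sorting and sequencing yield the functional score, defined as the log ratio of a variant's highest-bin frequency to its lowest-bin frequency, with the median taken over codons and replicate transductions. The libraries, codon-saturation sets of HA-tagged, YFP-fused human beta-sarcoglycan, went into HEK293 cells stably carrying alpha-, gamma- and delta-sarcoglycan by duplicate lentiviral transduction at MOI <0.1. Cells were stained on ice with Alexa Fluor 647 anti-HA, fixed and split into four 5% intensity bins, and synonymous variants were scaled per section to mean 0, SD 0.5.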

Row | Variant | SGCB cell-surface expression functional score (log10)
1 | MAAAAAAAAEQQSSNGPVKKSMREKAVERRSVNKEHNSNFKAGYIPIDEDRLHKTGLRGRKGNLAICVIILLFILAVINLIITLVIWAVIRIGPNGCDSMEFHESGLLRFKQVSDMGVIHPLYKSTVGGRRNENLVITGNNQPIVFQQGTTKLSVENNKTSITSDIGRQFFDPRTQNILFSTDYETHEFHLPSGVKSLNVQKASTERITSNATSDLNIKVDGRAIVRGNEGVFIMGKTIEFHMGGNMELKAENSIILNGSVMVSTTRLPSSSSGDQLGSGDWVRYKLCMCADGTLFKVQVTSQNMGCQISDNPCGNTH [M168R] | -0.79
2 | MAAAAAAAAEQQSSNGPVKKSMREKAVERRSVNTEHNSNFKAGYIPIDEDRLHKTGLRGRKGNLAICVIILLFILAVINLIITLVIWAVIRIGPNGCDSMEFHESGLLRFKQVSDMGVIHPLYKSTVGGRRNENLVITGNNQPIVFQQGTTKLSVENNKTSITSDIGMQFFDPRTQNILFSTDYETHEFHLPSGVKSLNVQKASTERITSNATSDLNIKVDGRAIVRGNEGVFIMGKTIEFHMGGNMELKAENSIILNGSVMVSTTRLPSSSSGDQLGSGDWVRYKLCMCADGTLFKVQVTSQNMGCQISDNPCGNTH [K34T] | 0.27
3 | MAAAAAAAAEQQSSNGPVKKSMREKAVERRSVNKEHNSNFKAGYIPIDEDRLHKTGLRGRKGNLAICVIILLFILAVINLIITLVIWAVIRIGPNGCDSMEFHESGLLRFKQVSDMGVIHPLYKSTVGGRRNENLVITGNNQPIVFQQGTTKLSVENNKTSITSDIGMQFFDPRTQNILFKTDYETHEFHLPSGVKSLNVQKASTERITSNATSDLNIKVDGRAIVRGNEGVFIMGKTIEFHMGGNMELKAENSIILNGSVMVSTTRLPSSSSGDQLGSGDWVRYKLCMCADGTLFKVQVTSQNMGCQISDNPCGNTH [S181K] | -1.64
4 | MAAAAAAAAEQQSSNGPVKRSMREKAVERRSVNKEHNSNFKAGYIPIDEDRLHKTGLRGRKGNLAICVIILLFILAVINLIITLVIWAVIRIGPNGCDSMEFHESGLLRFKQVSDMGVIHPLYKSTVGGRRNENLVITGNNQPIVFQQGTTKLSVENNKTSITSDIGMQFFDPRTQNILFSTDYETHEFHLPSGVKSLNVQKASTERITSNATSDLNIKVDGRAIVRGNEGVFIMGKTIEFHMGGNMELKAENSIILNGSVMVSTTRLPSSSSGDQLGSGDWVRYKLCMCADGTLFKVQVTSQNMGCQISDNPCGNTH [K20R] | 0.2
5 | MAAAAAAAAEQQSSNGPVKKSMREKAVERRSVNKEHNSNFKNGYIPIDEDRLHKTGLRGRKGNLAICVIILLFILAVINLIITLVIWAVIRIGPNGCDSMEFHESGLLRFKQVSDMGVIHPLYKSTVGGRRNENLVITGNNQPIVFQQGTTKLSVENNKTSITSDIGMQFFDPRTQNILFSTDYETHEFHLPSGVKSLNVQKASTERITSNATSDLNIKVDGRAIVRGNEGVFIMGKTIEFHMGGNMELKAENSIILNGSVMVSTTRLPSSSSGDQLGSGDWVRYKLCMCADGTLFKVQVTSQNMGCQISDNPCGNTH [A42N] | -0.67
6 | MAAAAAAAAEQQSSNGPVKKSMREKAVERRSVNKEHNSNFKAGYIPIDEDRLHKTGLRGRKGNLAICVIILLFILAVINLIITLVIWAVIRIGPNGCDSMEFHESGLLRFKQVSDMGVIHPLYKSTVGGRRNENLVITGNNQPIVFQQGTTKLSVENNKTSITSDIGMQFFDPRTQNVLFSTDYETHEFHLPSGVKSLNVQKASTERITSNATSDLNIKVDGRAIVRGNEGVFIMGKTIEFHMGGNMELKAENSIILNGSVMVSTTRLPSSSSGDQLGSGDWVRYKLCMCADGTLFKVQVTSQNMGCQISDNPCGNTH [I178V] | 0.68
7 | MAAAAAAAAEQQSSNGPVKKSMREKAVERRSVNKEHNSNFKAGYIPIDEDRLHKTGLRGRKGNLAICVIILLFILAVINLIITLVIWAVIRIGPNGCDSMEFHESGLLRFKQVSDMGVIHPLYKSTVGGRRNENLVITGNNQPIVFQQGTTKLSVENNKTSITSDIGMQFFDPRTQNILFSTDYETHEFHLPSGVKSLNVQKASTERITSNATSDLNIKVDGRAIVWGNEGVFIMGKTIEFHMGGNMELKAENSIILNGSVMVSTTRLPSSSSGDQLGSGDWVRYKLCMCADGTLFKVQVTSQNMGCQISDNPCGNTH [R227W] | 0.59
8 | MAAAAAAAAEQQSSNGPVKKSMREKAVERRSVNKEHNSNFKAGYIPIDEDRLHKTGLRGRKGNLAICVIILLFILAVINLIITLVIWAVIRIGPNGCDSMEFHESGLLRFKQVSDMGVIHPLYKSTVGGRRNENLVITGNNQPIVFQQGTTKLSVENNKTSITSDIGMQFFDPRTQNILRSTDYETHEFHLPSGVKSLNVQKASTERITSNATSDLNIKVDGRAIVRGNEGVFIMGKTIEFHMGGNMELKAENSIILNGSVMVSTTRLPSSSSGDQLGSGDWVRYKLCMCADGTLFKVQVTSQNMGCQISDNPCGNTH [F180R] | -1.76
9 | MAAAAAAAAEQQSSNGPVKKSMREKAVERRSVNKEHNSNFKAGYIPIDEDRLHKTGLRGRKGNLAICVIILLFILAVINLIITLVIWAVIRIGPNGCDSMEFHESGLLRFKQVSDMGVIHPLYKSTVGGRRNENLVITGNNQPIVFQQGTTKLSVENNKTSITSDIGMQFFDPRTQNILFSTDYETHEFHLPSGVKSLNVQKASTERITSNATSDLNQKVDGRAIVRGNEGVFIMGKTIEFHMGGNMELKAENSIILNGSVMVSTTRLPSSSSGDQLGSGDWVRYKLCMCADGTLFKVQVTSQNMGCQISDNPCGNTH [I218Q] | -2.02
10 | MAAAAAAAAEQQSSNGPVKKSMREKAVERRSVNKEHNSNFKAGYIPIDEDRLHKTGLRGRKGNLAICVIILLFILAVINLIITLVIWAVIRIGPNGCDSMEFHESGLLRFKQVSDMGVIHPLYKSTVGGRRNENLVITGNNQPIVFQQGTTKLSVENNKTSITSDIGMQFFDDRTQNILFSTDYETHEFHLPSGVKSLNVQKASTERITSNATSDLNIKVDGRAIVRGNEGVFIMGKTIEFHMGGNMELKAENSIILNGSVMVSTTRLPSSSSGDQLGSGDWVRYKLCMCADGTLFKVQVTSQNMGCQISDNPCGNTH [P173D] | -0.84
